{"source": "the supplement of paper PMC10126150", "note": "± gives the standard deviation of the averaged measurements.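 Also: ATP exposure 15 min at 22 °C before imaging.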", "data": [{"test_system": "ATP", "test": "switch fluorescence ratio, 500 uM ATP over buffer (Cy3 cluster intensity, sum of 5 cycles each) (fold (ratio)); higher = stronger signal-on switching upon ATP binding; sequences stand for … in TCGTCGGCAGCGTCAGATGTGTATAAGAGACAGTTTTTTTTTTTTTTTTTTTTTTTTT…TC", "conditions": "aptamer strand: ATP DNA aptamer (quencher-CACCTGGGGGAGTATTGCGGAGGAAGG + anchor), 100 nM annealed; ATP concentration: 500 uM", "outline": "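Cy3-labelled switching-strand clusters on a modified Illumina MiSeq flow-cell were annealed to 100 nM quencher-labelled ATP aptamer, imaged in selection buffer, then imaged after 15 min with 500 uM ATP at 22 °C. Five buffer/ATP cycles ran, with NaOH stripping and re-annealing between them. The fluorescence ratio is summed target-cycle over summed buffer-cycle Cy3 intensity per cluster, averaged per switch-domain sequence. Clusters outside 100-1000 RFU were excluded.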", "values": [{"sequence": "TTGGTTTGTA", "switch fluorescence ratio": "1 ± 0.065"}, {"sequence": "TTGGTTTTCG", "switch fluorescence ratio": "0.973 ± 0.026"}, {"sequence": "TTGGTTTTTT", "switch fluorescence ratio": "1 ± 0.034"}, {"sequence": "TTGTAAATCG", "switch fluorescence ratio": "0.975 ± 0.02"}, {"sequence": "TTGTAAATT", "switch fluorescence ratio": "1.02 ± 0.043"}, {"sequence": "TTGTAAATTT", "switch fluorescence ratio": "1.012 ± 0.01"}, {"sequence": "TTGTAAGGAT", "switch fluorescence ratio": "1.02 ± 0.013"}, {"sequence": "TTGTAATGTT", "switch fluorescence ratio": "1.01 ± 0.051"}, {"sequence": "TTGTAATTGT", "switch fluorescence ratio": "0.995 ± 0.021"}, {"sequence": "TTGTAATTTA", "switch fluorescence ratio": "1.01 ± 0.019"}, {"sequence": "TTGTACATCC", "switch fluorescence ratio": "1.03 ± 0.013"}, {"sequence": "TTGTACGCCA", "switch fluorescence ratio": "1.31 ± 0.19"}, {"sequence": "TTGTAGACAG", "switch fluorescence ratio": "1.013 ± 0.0088"}, {"sequence": "TTGTAGCGGT", "switch fluorescence ratio": "1.05 ± 0.034"}, {"sequence": "TTGTAGTGGG", "switch fluorescence ratio": "1.02 ± 0.048"}, {"sequence": "TTGTAGTTAC", "switch fluorescence ratio": "1.034 ± 0.0049"}, {"sequence": "TTGTATAGTG", "switch fluorescence ratio": "0.933 ± 0.033"}, {"sequence": "TTGTATATGT", "switch fluorescence ratio": "1.0292 ± 2.1e-05"}, {"sequence": "TTGTATCACG", "switch fluorescence ratio": "1.03 ± 0.059"}, {"sequence": "TTGTATGATT", "switch fluorescence ratio": "1.013 ± 0.0075"}, {"sequence": "TTGTATGGAC", "switch fluorescence ratio": "1.019 ± 0.0076"}, {"sequence": "TTGTATGGCA", "switch fluorescence ratio": "0.973 ± 0.027"}, {"sequence": "TTGTATGTTA", "switch fluorescence ratio": "1 ± 0.017"}, {"sequence": "TTGTCAATGT", "switch fluorescence ratio": "1.06 ± 0.053"}, {"sequence": "TTGTCACAGC", "switch fluorescence ratio": "1.03 ± 0.022"}, {"sequence": "TTGTCAGGGT", "switch fluorescence ratio": "0.995 ± 0.026"}, {"sequence": "TTGTCATGAT", "switch fluorescence ratio": "1.006 ± 0.006"}, {"sequence": "TTGTCGCGTA", "switch fluorescence ratio": "1.01 ± 0.07"}, {"sequence": "TTGTCGGTTT", "switch fluorescence ratio": "0.983 ± 0.014"}, {"sequence": "TTGTCGTCAC", "switch fluorescence ratio": "1.01 ± 0.037"}, {"sequence": "TTGTCTAATT", "switch fluorescence ratio": "1.007 ± 0.0081"}, {"sequence": "TTGTCTAGGG", "switch fluorescence ratio": "0.98 ± 0.033"}, {"sequence": "TTGTCTAGGT", "switch fluorescence ratio": "1.01 ± 0.013"}, {"sequence": "TTGTGACAGT", "switch fluorescence ratio": "1.01 ± 0.024"}, {"sequence": "TTGTGACGGG", "switch fluorescence ratio": "1 ± 0.023"}, {"sequence": "TTGTGATAGC", "switch fluorescence ratio": "1.05 ± 0.075"}, {"sequence": "TTGTGATTGC", "switch fluorescence ratio": "1.03 ± 0.089"}, {"sequence": "TTGTGCGAAA", "switch fluorescence ratio": "1.01 ± 0.059"}, {"sequence": "TTGTGCGCGG", "switch fluorescence ratio": "1.04 ± 0.019"}, {"sequence": "TTGTGCGGAC", "switch fluorescence ratio": "1.01 ± 0.04"}, {"sequence": "TTGTGCGTGG", "switch fluorescence ratio": "0.971 ± 0.015"}, {"sequence": "TTGTGCTGGA", "switch fluorescence ratio": "1.04 ± 0.029"}, {"sequence": "TTGTGGAAAA", "switch fluorescence ratio": "0.953 ± 0.03"}, {"sequence": "TTGTGGAAAC", "switch fluorescence ratio": "1.02 ± 0.012"}, {"sequence": "TTGTGGACTT", "switch fluorescence ratio": "0.9995 ± 0.0093"}, {"sequence": "TTGTGGATAA", "switch fluorescence ratio": "1.01 ± 0.0094"}, {"sequence": "TTGTGGCTTA", "switch fluorescence ratio": "0.98 ± 0.036"}, {"sequence": "TTGTGGGGCT", "switch fluorescence ratio": "0.9974 ± 0.009"}, {"sequence": "TTGTGGGGG", "switch fluorescence ratio": "1.0016 ± 0.0009"}, {"sequence": "TTGTGGGGGC", "switch fluorescence ratio": "0.991 ± 0.038"}, {"sequence": "TTGTGGGGTA", "switch fluorescence ratio": "1 ± 0.023"}, {"sequence": "TTGTGGGTAC", "switch fluorescence ratio": "1.0042 ± 0.0004"}, {"sequence": "TTGTGGTGAC", "switch fluorescence ratio": "0.9866 ± 0.0012"}, {"sequence": "TTGTGGTTCC", "switch fluorescence ratio": "1.08 ± 0.14"}, {"sequence": "TTGTGTTATC", "switch fluorescence ratio": "1.01 ± 0.012"}, {"sequence": "TTGTGTTGTA", "switch fluorescence ratio": "1 ± 0.042"}, {"sequence": "TTGTTAATAG", "switch fluorescence ratio": "1.06 ± 0.062"}, {"sequence": "TTGTTACGGA", "switch fluorescence ratio": "1.01 ± 0.017"}, {"sequence": "TTGTTACGGT", "switch fluorescence ratio": "0.981 ± 0.041"}, {"sequence": "TTGTTAGATT", "switch fluorescence ratio": "0.994 ± 0.031"}, {"sequence": "TTGTTATAGC", "switch fluorescence ratio": "0.987 ± 0.042"}, {"sequence": "TTGTTATGTG", "switch fluorescence ratio": "0.955 ± 0.024"}, {"sequence": "TTGTTCAAGG", "switch fluorescence ratio": "0.981 ± 0.015"}, {"sequence": "TTGTTCAGTT", "switch fluorescence ratio": "1.02 ± 0.036"}, {"sequence": "TTGTTCATTT", "switch fluorescence ratio": "0.994 ± 0.012"}, {"sequence": "TTGTTCTTAA", "switch fluorescence ratio": "1.05 ± 0.11"}, {"sequence": "TTGTTGGGCT", "switch fluorescence ratio": "0.981 ± 0.039"}, {"sequence": "TTGTTGGGGC", "switch fluorescence ratio": "1.02 ± 0.035"}, {"sequence": "TTGTTGGGTT", "switch fluorescence ratio": "1.02 ± 0.061"}, {"sequence": "TTGTTGTACT", "switch fluorescence ratio": "1.02 ± 0.014"}, {"sequence": "TTGTTGTAGG", "switch fluorescence ratio": "0.993 ± 0.041"}, {"sequence": "TTGTTGTGTT", "switch fluorescence ratio": "1.005 ± 0.0098"}, {"sequence": "TTGTTGTTCC", "switch fluorescence ratio": "1.08 ± 0.063"}, {"sequence": "TTGTTTAAGA", "switch fluorescence ratio": "1.03 ± 0.082"}, {"sequence": "TTGTTTACTT", "switch fluorescence ratio": "1.04 ± 0.061"}, {"sequence": "TTGTTTATAG", "switch fluorescence ratio": "0.985 ± 0.03"}, {"sequence": "TTGTTTATGT", "switch fluorescence ratio": "0.9993 ± 0.0082"}, {"sequence": "TTGTTTCAGT", "switch fluorescence ratio": "0.997 ± 0.028"}, {"sequence": "TTGTTTTAGT", "switch fluorescence ratio": "1.06 ± 0.067"}, {"sequence": "TTGTTTTATA", "switch fluorescence ratio": "0.9733 ± 0.0064"}, {"sequence": "TTGTTTTCAT", "switch fluorescence ratio": "1.04 ± 0.018"}, {"sequence": "TTGTTTTCGG", "switch fluorescence ratio": "0.961 ± 0.02"}, {"sequence": "TTGTTTTGGG", "switch fluorescence ratio": "1 ± 0.019"}, {"sequence": "TTGTTTTGGT", "switch fluorescence ratio": "0.966 ± 0.016"}, {"sequence": "TTGTTTTTGC", "switch fluorescence ratio": "0.9959 ± 0.0089"}, {"sequence": "TTTAAAAGGA", "switch fluorescence ratio": "1.01 ± 0.056"}, {"sequence": "TTTAAACCCT", "switch fluorescence ratio": "1.03 ± 0.024"}, {"sequence": "TTTAAAGAAA", "switch fluorescence ratio": "1.02 ± 0.016"}, {"sequence": "TTTAAAGCAG", "switch fluorescence ratio": "1.01 ± 0.02"}, {"sequence": "TTTAAAGGCC", "switch fluorescence ratio": "0.9682 ± 0.00099"}, {"sequence": "TTTAAAGGGA", "switch fluorescence ratio": "1.06 ± 0.17"}, {"sequence": "TTTAAAGTTG", "switch fluorescence ratio": "1.05 ± 0.04"}, {"sequence": "TTTAAAGTTT", "switch fluorescence ratio": "0.99 ± 0.029"}, {"sequence": "TTTAAATGTT", "switch fluorescence ratio": "0.991 ± 0.031"}, {"sequence": "TTTAAATTGA", "switch fluorescence ratio": "0.986 ± 0.02"}, {"sequence": "TTTAAATTGT", "switch fluorescence ratio": "0.99 ± 0.035"}, {"sequence": "TTTAAGACGG", "switch fluorescence ratio": "0.98439 ± 0.00032"}, {"sequence": "TTTAAGAGGG", "switch fluorescence ratio": "0.978 ± 0.038"}, {"sequence": "TTTAAGCTAC", "switch fluorescence ratio": "4.03 ± 0.57"}, {"sequence": "TTTAAGGGAT", "switch fluorescence ratio": "1 ± 0.041"}]}]}
